From patent US20030129724A1 (Harvard, published 2003) come the findings set out here.

To fix the notation:
B1: Recombinant FLAG-epitope tagged HDAC6 (enzyme, not shown: small tags and cut ends)
chain: MTSTGQDSTTTRQRRSRQNPQSPPQDSSVTSKRNIKKGAVPRSIPNLAEVKKKGKMKKLGQAMEEDLIVGLQGMDLNLEAEALAGTGLVLDEQLNEFHCLWDDSFPEGPERLHAIKEQLIQEGLLDRCVSFQARFAEKEELMLVHSLEYIDLMETTQYMNEGELRVLADTYDSVYLHPNSYSCACLASGSVLRLVDAVLGAEIRNGMAIIRPPGHHAQHSLMDGYCMFNHVAVAARYAQQKHRIRRVLIVDWDVHHGQGTQFTFDQDPSVLYFSIHRYEQGRFWPHLKASNWSTTGFGQGQGYTINVPWNQVGMRDADYIAAFLHVLLPVALEFQPQLVLVAAGFDALQGDPKGEMAATPAGFAQLTHLLMGLAGGKLILSLEGGYNLRALAEGVSASLHTLLGDPCPMLESPGAPCRSAQASVSCALEALEPFWEVLVRSTETVERDNMEEDNVEESEEEGPWEPPVLPILTWPVLQSRTGLVYDQNMMNHCNLWDSHHPEVPQRILRIMCRLEELGLAGRCLTLTPRPATEAELLTCHSAEYVGHLRATEKMKTRELHRESSNFDSIYICPSTFACAQLATGAACRLVEAVLSGEVLNGAAVVRPPGHHAEQDAACGFCFFNSVAVAARHAQTISGHALRILIVDWDVHHGNGTQHMFEDDPSVLYVSLHRYDHGTFFPMGDEGASSQIGRAAGTGFTVNVAWNGPRMGDADYLAAWHRLVLPIAYEFNPELVLVSAGFDAARGDPLGGCQVSPEGYAHLTHLLMGLASGRIILILEGGYNLTSISESMAACTRSLLGDPPPLLTLPRPPLSGALASITETIQVHRRYWRSLRVMKVEDREGPSSSKLVTKKAPQPAKPRLAERMTTREKKVLEAGMGKVTSASFGEESTPGQTNSETAVVALTQDQPSEAATGGATLAQTISEAAIGGAMLGQTTSEEAVGGATPDQTTSEETVGGAILDQTTSEDAVGGATLGQTTSEEAVGGATLAQTISEAAMEGATLDQTTSEEAPGGTELIQTPLASSTDHQTPPTSPVQGTTPQISPSTLIGSLRTLELGSESQGASESQAPGEENLLGEAAGGQDMADSMLMQGSRGLTDQAIFYAVTPLPWCPHLVAVCPIPAAGLDVTQPCGDCGTIQENWVCLSCYQVYCGRYINGHMLQHHGNSGHPLVLSYIDLSAWCYYCQAYVHHQALLDVKNIAHQNKFGEDMPHPH
notes: Full length ORF with C-terminal FLAG tag in pBJ5, expressed in TAg Jurkat cells; also called HDAC6-FLAG; HD6

One series has as its target HDAC4-EGFP (human) (UniProt P56524). In words: cell-based or functional assay.
A further series addresses T1, CHD4 (UniProt Q14839 1-1912, limits assumed).
T1 construct: Endogenous protein detected by Western blot in immunoprecipitates; also called CHD chromodomain protein
The series can be described thus: anti-FLAG co-immunoprecipitation from TAg Jurkat cells, Western blot.

The target in a further series is T2, mSin3A (UniProt Q96ST3 1-1273).
T2 construct: Endogenous protein detected by Western blot in immunoprecipitates; also called co-repressor mSin3A
T2 sequence (looked up): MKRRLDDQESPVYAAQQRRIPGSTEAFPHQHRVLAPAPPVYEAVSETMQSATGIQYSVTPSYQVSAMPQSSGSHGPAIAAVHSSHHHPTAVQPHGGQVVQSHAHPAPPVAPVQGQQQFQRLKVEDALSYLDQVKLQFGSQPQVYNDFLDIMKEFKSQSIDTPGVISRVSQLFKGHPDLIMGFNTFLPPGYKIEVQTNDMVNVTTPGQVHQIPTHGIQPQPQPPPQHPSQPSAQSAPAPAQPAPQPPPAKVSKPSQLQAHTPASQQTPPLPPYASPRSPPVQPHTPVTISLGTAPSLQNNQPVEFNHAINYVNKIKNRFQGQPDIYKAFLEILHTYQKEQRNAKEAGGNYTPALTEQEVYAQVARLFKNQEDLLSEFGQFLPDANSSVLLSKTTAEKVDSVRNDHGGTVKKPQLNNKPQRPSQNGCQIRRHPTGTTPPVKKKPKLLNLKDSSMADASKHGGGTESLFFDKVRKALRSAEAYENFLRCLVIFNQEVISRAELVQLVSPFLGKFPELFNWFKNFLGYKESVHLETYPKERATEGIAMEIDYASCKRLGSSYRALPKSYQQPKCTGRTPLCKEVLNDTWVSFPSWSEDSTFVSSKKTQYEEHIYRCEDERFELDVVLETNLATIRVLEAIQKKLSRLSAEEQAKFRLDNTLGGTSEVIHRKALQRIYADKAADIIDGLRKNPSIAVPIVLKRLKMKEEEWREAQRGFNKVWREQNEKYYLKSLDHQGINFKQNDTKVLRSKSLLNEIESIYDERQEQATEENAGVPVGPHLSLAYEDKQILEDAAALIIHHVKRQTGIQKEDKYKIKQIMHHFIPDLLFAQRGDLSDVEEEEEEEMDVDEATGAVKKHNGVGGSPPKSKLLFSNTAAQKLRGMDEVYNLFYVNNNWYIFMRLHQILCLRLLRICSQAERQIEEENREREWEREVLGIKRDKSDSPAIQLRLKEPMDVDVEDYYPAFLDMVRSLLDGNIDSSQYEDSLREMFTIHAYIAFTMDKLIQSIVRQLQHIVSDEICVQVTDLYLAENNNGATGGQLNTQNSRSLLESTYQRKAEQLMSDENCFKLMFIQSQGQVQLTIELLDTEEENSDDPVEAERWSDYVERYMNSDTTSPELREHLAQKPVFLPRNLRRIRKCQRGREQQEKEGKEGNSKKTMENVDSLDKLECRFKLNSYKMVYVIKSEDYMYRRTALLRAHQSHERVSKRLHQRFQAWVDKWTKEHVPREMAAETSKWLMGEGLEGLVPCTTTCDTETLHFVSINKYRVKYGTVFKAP
The description is as above.

Series [1] has as its target B1. In words: anti-FLAG co-immunoprecipitation from TAg Jurkat cells, Western blot. For orientation: A western blot detects proteins with antibodies after separation by electrophoresis.
The target of series [2] is T3, calyculin A-treated (hyperphosphorylated) HDAC4 (human, UniProt P56524 1-1084, hyperphosphorylated after calyculin A treatment of the cells; sites not determined).
T3 construct: HDAC4-FLAG immunopurified from TAg Jurkat cells treated 1.5 hours with 20 nM calyculin A; also called HDAC4-FLAG from calyculin A-treated cells
In words: immunopurified HDAC4-FLAG from calyculin A-treated cells incubated 1 hour with untreated TAg Jurkat lysate, Western blot. The method, then: These samples were analyzed for 14-3-3 and HDAC3 binding by Western blot analysis.

Sequence of 14-3-3 ε, P62258 (P62258 whole entry, looked up): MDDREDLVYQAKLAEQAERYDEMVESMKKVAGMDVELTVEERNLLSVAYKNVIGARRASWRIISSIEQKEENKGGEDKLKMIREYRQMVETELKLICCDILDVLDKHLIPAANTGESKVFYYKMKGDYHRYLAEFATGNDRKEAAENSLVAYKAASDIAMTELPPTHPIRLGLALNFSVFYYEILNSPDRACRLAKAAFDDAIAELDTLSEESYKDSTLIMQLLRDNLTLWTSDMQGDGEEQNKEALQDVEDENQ
T1 sequence (Q14839 whole entry): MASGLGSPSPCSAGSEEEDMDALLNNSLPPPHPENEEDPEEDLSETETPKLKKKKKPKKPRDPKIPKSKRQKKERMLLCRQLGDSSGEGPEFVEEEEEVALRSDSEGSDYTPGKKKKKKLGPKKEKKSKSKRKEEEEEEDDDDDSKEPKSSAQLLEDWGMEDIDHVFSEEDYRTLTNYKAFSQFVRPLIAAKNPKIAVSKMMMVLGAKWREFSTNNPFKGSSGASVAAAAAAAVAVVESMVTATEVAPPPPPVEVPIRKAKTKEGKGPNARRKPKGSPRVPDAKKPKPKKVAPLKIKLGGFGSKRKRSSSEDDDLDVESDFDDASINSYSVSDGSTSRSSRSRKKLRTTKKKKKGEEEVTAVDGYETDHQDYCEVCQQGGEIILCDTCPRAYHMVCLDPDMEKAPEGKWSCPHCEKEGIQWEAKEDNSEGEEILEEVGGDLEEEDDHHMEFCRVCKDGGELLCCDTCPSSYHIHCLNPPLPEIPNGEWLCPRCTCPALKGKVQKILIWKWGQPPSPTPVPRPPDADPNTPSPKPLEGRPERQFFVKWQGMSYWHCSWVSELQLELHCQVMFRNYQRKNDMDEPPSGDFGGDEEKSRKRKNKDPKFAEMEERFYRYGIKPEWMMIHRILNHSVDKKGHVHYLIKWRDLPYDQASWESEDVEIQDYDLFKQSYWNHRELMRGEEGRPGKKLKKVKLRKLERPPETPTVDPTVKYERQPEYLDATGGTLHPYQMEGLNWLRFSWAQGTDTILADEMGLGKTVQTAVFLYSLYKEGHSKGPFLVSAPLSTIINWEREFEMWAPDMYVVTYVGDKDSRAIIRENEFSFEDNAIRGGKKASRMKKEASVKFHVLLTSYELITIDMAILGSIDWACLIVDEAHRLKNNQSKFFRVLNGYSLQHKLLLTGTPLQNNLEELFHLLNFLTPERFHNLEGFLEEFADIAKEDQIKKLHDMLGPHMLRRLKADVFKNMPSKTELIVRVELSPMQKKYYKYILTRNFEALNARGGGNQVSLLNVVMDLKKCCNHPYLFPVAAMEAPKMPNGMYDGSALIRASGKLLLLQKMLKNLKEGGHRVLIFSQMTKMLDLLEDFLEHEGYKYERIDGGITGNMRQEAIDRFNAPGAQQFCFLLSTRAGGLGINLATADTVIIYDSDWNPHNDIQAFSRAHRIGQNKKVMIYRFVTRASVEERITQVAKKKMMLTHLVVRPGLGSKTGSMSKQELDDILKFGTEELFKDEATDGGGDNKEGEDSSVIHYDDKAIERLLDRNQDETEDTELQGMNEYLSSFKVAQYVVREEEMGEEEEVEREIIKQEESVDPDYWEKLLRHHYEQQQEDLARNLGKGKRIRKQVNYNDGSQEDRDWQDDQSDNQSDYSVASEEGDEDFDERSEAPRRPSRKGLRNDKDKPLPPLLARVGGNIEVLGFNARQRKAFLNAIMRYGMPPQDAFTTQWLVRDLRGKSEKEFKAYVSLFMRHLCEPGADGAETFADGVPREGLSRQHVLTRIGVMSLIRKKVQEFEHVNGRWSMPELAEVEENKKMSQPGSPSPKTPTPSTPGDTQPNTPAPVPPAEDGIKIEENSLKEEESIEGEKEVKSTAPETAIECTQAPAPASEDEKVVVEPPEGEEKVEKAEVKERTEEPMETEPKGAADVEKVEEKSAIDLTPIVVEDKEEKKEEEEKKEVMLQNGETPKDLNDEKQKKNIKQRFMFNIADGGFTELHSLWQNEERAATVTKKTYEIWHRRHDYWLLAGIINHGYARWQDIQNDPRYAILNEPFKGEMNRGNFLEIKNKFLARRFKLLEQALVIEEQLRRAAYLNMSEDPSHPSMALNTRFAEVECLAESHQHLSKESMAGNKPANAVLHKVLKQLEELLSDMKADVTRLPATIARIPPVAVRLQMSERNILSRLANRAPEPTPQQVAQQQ
Sequence of 14-3-3 β, P31946 (P31946 whole entry, looked up): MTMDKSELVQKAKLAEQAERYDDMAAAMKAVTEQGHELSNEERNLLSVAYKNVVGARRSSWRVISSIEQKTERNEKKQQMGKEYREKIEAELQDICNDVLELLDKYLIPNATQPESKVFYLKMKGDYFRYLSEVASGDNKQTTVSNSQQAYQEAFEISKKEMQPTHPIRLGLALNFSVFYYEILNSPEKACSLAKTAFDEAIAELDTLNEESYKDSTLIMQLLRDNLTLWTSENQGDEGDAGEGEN

In the series with HDAC4-EGFP (human), “myc-tagged 14-3-3 β (from UniProt P31946 1-246)” came in with a cytoplasmic localization of HDAC4 (percent of U2OS cells), HDAC4-EGFP with simultaneous overexpression of 14-3-3 (% of the cells) of 97 and a cytoplasmic localization of HDAC4 (percent of U2OS cells), control: HDAC4-EGFP alone without overexpressed 14-3-3 (% of the cells) of 67.
In the case of B1, the binding result with CHD4 and in the series with mSin3A was “no binding” each time.

B2: HDAC4 S246/466/632A triple mutant (protein)
chain: MSSQSHPDGLSGRDQPVELLNPARVNHMPSTVDVATALPLQVAPSAVPMDLRLDHQFSLPVAEPALREQQLQQELLALKQKQQIQRQILIAEFQRQHEQLSRQHEAQLHEHIKQQQEMLAMKHQQELLEHQRKLERHRQEQELEKQHREQKLQQLKNKEKGKESAVASTEVKMKLQEFVLNKKKALAHRNLNHCISSDPRYWYGKTQHSSLDQSSPPQSGVSTSYNHPVLGMYDAKDDFPLRKTAAEPNLKLRSRLKQKVAERRSSPLLRRKDGPVVTALKKRPLDVTDSACSSAPGSGPSSPNNSSGSVSAENGIAPAVPSIPAETSLAHRLVAREGSAAPLPLYTSPSLPNITLGLPATGPSAGTAGQQDTERLTLPALQQRLSLFPGTHLTPYLSTSPLERDGGAAHSPLLQHMVLLEQPPAQAPLVTGLGALPLHAQSLVGADRVSPSIHKLRQHRPLGRTQAAPLPQNAQALQHLVIQQQHQQFLEKHKQQFQQQQLQMNKIIPKPSEPARQPESHPEETEEELREHQALLDEPYLDRLPGQKEAHAQAGVQVKQEPIESDEEEAEPPREVEPGQRQPSEQELLFRQQALLLEQQRIHQLRNYQASMEAAGIPVSFGGHRPLSRAQASPASATFPVSVQEPPTKPRFTTGLVYDTLMLKHQCTCGSSSSHPEHAGRIQSIWSRLQETGLRGKCECIRGRKATLEELQTVHSEAHTLLYGTNPLNRQKLDSKKLLGSLASVFVRLPCGGVGVDSDTIWNEVHSAGAARLAVGCVVELVFKVATGELKNGFAVVRPPGHHAEESTPMGFCYFNSVAVAAKLLQQRLSVSKILIVDWDVHHGNGTQQAFYSDPSVLYMSLHRYDDGNFFPGSGAPDEVGTGPGVGFNVNMAFTGGLDPPMGDAEYLAAFRTVVMPIASEFAPDVVLVSSGFDAVEGHPTPLGGYNLSARCFGYLTKQLMGLAGGRIVLALEGGHDLTAICDASEACVSALLGNELDPLPEKVLQQRPNANAVRSMEKVMEIHSKYWRCLQRTTSTAGRSLIEAQTCENEEAETVTAMASLSVGVKPAEKRPDEEPMEEEPPL
As for B2, the “localization to the cytoplasm” value in the series with 14-3-3 ε, P62258 is “localization of the triple mutant to the cytoplasm is dramatically decreased compared to the wild-type and single mutants”; with 14-3-3 β, P31946 it was “localization of the triple mutant to the cytoplasm is dramatically decreased compared to the wild-type and single mutants”.

B3: HDAC3 (enzyme, human, UniProt O15379 1-428, looked up)
chain: MAKTVAYFYDPDVGNFHYGAGHPMKPHRLALTHSLVLHYGLYKKMIVFKPYQASQHDMCRFHSEDYIDFLQRVSPTNMQGFTKSLNAFNVGDDCPVFPGLFEFCSRYTGASLQGATQLNNKICDIAINWAGGLHHAKKFEASGFCYVNDIVIGILELLKYHPRVLYIDIDIHHGDGVQEAFYLTDRVMTVSFHKYGNYFFPGTGDMYEVGAESGRYYCLNVPLRDGIDDQSYKHLFQPVINQVVDFYQPTCIVLQCGADSLGCDRLGCFNLSIRGHGECVEYVKSFNIPLLVLGGGGYTVRNVARCWTYETSLLVEEAISEELPYSEYFEYFAPDFTLHPDVSTRIENQNSRQYLDQIRQTIFENLKMLNHAPSVQIHDVPADLLTYDRTDEADAEERGPEENYSRPEAPNEFYDGDHDNDKESDVEI
notes: Endogenous protein co-immunoprecipitated from cell lysate; also used here for HDAC3 of staurosporine-treated cells; also called HDAC3 from untreated cells
In the case of B3, the binding result in series [1] is listed as “no binding”; in series [2], “binds”.
